Test results reported in patent US12698507B2, “Methods and compositions for conferring and/or enhancing herbicide tolerance using protoporphyrinogen IX oxidase of various cyanobacteria or variant thereof” (FarmHannong Co., Ltd., priority 2019, dated 2026).

Tested on: PPO-deficient BT3 E. coli (ΔPPO)
Assay: PPO-inhibiting herbicide tolerance test of PPO variants in E. coli (growth on herbicide-containing LB agar)
Type: cell-based
Conditions: CyPPO19 variants in BT3 (ΔPPO) E. coli; LB agar with 0 to 2,000 μM herbicide, 37° C., dark, 16-20 hours
Summary of the method: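 Tolerance was scored against wild-type enzyme: '−' for equal growth, one '+' per 10-fold gain, up to '+++++'. ΔPPO BT3 cells carrying variant plasmids, spotted as a 10-fold dilution series from OD600=0.5, grew 16-20 h at 37° C. in the dark on ampicillin LB agar containing 0 to 2,000 μM herbicide.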

Molecule	tolerance level relative to wild type, Carfentrazone	tolerance level relative to wild type, Flumioxazin	tolerance level relative to wild type, Fomesafen	tolerance level relative to wild type, Oxyfluorfen	tolerance level relative to wild type, Saflufenacil	tolerance level relative to wild type, Sulfentrazone	tolerance level relative to wild type, Tiafenacil
CyPPO19 A167I + F360L: variant of CyPPO19 PPO protein (SEQ ID NO: 1) (protein, Synthetic_PPO of Thermosynechococcus elongatus PKUAC-SCTE542 (comprising GenBank No. CP032152.1)) MSEVDVAIVGGGLSGLSLAWRLQQSAPQYSVVLLEASDRLGGNITTQTAEGFVWELGPNSFAPTPALLQLIAEVGLQSELIRGDRHLPRYIYWRGQLYPLQPTRPLALATSNLLSPWGKVRAALGALGFVPPYLGSGDESVNSFFRRHLGQEVAERLVAPFVSGVYIGDPQQLSAAAAFRRIAQLEKLGGGLIAGALHLRRQQAPKPKPPTSVQMRPGELGSFKEGLAALPRAIAQQLKAPIHLQTPVQEITPDPKGGYLLRSGEQTWRARSVVLATPAYQTAELVAPFQPAIARVLATIPYPTVACVVLAYPAGLGRSVRPGFGVLIPRSQGIRTLGTIWSSCLFPQRTPAGWQVFTSLIGGATDPDLASLSEEAIVQQVQQDLNRLLDLPAAKARLLGMKVWRRAIPQYMVGYPEQWQQVTHALSQTPGLFLCSNYAEGVALGDRVEHGNRTAAAVAAYLSGGQP	+ (‘+’ per each 10-fold resistance)	+++ (‘+’ per each 10-fold resistance)	+ (‘+’ per each 10-fold resistance)	+ (‘+’ per each 10-fold resistance)	+++ (‘+’ per each 10-fold resistance)	+ (‘+’ per each 10-fold resistance)	+++ (‘+’ per each 10-fold resistance)
CyPPO19 A167C + F360M: variant of CyPPO19 PPO protein (SEQ ID NO: 1) (protein, Synthetic_PPO of Thermosynechococcus elongatus PKUAC-SCTE542 (comprising GenBank No. CP032152.1)) MSEVDVAIVGGGLSGLSLAWRLQQSAPQYSVVLLEASDRLGGNITTQTAEGFVWELGPNSFAPTPALLQLIAEVGLQSELIRGDRHLPRYIYWRGQLYPLQPTRPLALATSNLLSPWGKVRAALGALGFVPPYLGSGDESVNSFFRRHLGQEVAERLVAPFVSGVYCGDPQQLSAAAAFRRIAQLEKLGGGLIAGALHLRRQQAPKPKPPTSVQMRPGELGSFKEGLAALPRAIAQQLKAPIHLQTPVQEITPDPKGGYLLRSGEQTWRARSVVLATPAYQTAELVAPFQPAIARVLATIPYPTVACVVLAYPAGLGRSVRPGFGVLIPRSQGIRTLGTIWSSCLFPQRTPAGWQVFTSMIGGATDPDLASLSEEAIVQQVQQDLNRLLDLPAAKARLLGMKVWRRAIPQYMVGYPEQWQQVTHALSQTPGLFLCSNYAEGVALGDRVEHGNRTAAAVAAYLSGGQP	+ (‘+’ per each 10-fold resistance)	++++ (‘+’ per each 10-fold resistance)	+ (‘+’ per each 10-fold resistance)	++ (‘+’ per each 10-fold resistance)	++++ (‘+’ per each 10-fold resistance)	+ (‘+’ per each 10-fold resistance)	++++ (‘+’ per each 10-fold resistance)
CyPPO19 A167L + F360T: variant of CyPPO19 PPO protein (SEQ ID NO: 1) (protein, Synthetic_PPO of Thermosynechococcus elongatus PKUAC-SCTE542 (comprising GenBank No. CP032152.1)) MSEVDVAIVGGGLSGLSLAWRLQQSAPQYSVVLLEASDRLGGNITTQTAEGFVWELGPNSFAPTPALLQLIAEVGLQSELIRGDRHLPRYIYWRGQLYPLQPTRPLALATSNLLSPWGKVRAALGALGFVPPYLGSGDESVNSFFRRHLGQEVAERLVAPFVSGVYLGDPQQLSAAAAFRRIAQLEKLGGGLIAGALHLRRQQAPKPKPPTSVQMRPGELGSFKEGLAALPRAIAQQLKAPIHLQTPVQEITPDPKGGYLLRSGEQTWRARSVVLATPAYQTAELVAPFQPAIARVLATIPYPTVACVVLAYPAGLGRSVRPGFGVLIPRSQGIRTLGTIWSSCLFPQRTPAGWQVFTSTIGGATDPDLASLSEEAIVQQVQQDLNRLLDLPAAKARLLGMKVWRRAIPQYMVGYPEQWQQVTHALSQTPGLFLCSNYAEGVALGDRVEHGNRTAAAVAAYLSGGQP	+ (‘+’ per each 10-fold resistance)	+++ (‘+’ per each 10-fold resistance)	+ (‘+’ per each 10-fold resistance)	+ (‘+’ per each 10-fold resistance)	+++ (‘+’ per each 10-fold resistance)	++ (‘+’ per each 10-fold resistance)	+++ (‘+’ per each 10-fold resistance)
CyPPO19 A167C + F360L: variant of CyPPO19 PPO protein (SEQ ID NO: 1) (protein, Synthetic_PPO of Thermosynechococcus elongatus PKUAC-SCTE542 (comprising GenBank No. CP032152.1)) MSEVDVAIVGGGLSGLSLAWRLQQSAPQYSVVLLEASDRLGGNITTQTAEGFVWELGPNSFAPTPALLQLIAEVGLQSELIRGDRHLPRYIYWRGQLYPLQPTRPLALATSNLLSPWGKVRAALGALGFVPPYLGSGDESVNSFFRRHLGQEVAERLVAPFVSGVYCGDPQQLSAAAAFRRIAQLEKLGGGLIAGALHLRRQQAPKPKPPTSVQMRPGELGSFKEGLAALPRAIAQQLKAPIHLQTPVQEITPDPKGGYLLRSGEQTWRARSVVLATPAYQTAELVAPFQPAIARVLATIPYPTVACVVLAYPAGLGRSVRPGFGVLIPRSQGIRTLGTIWSSCLFPQRTPAGWQVFTSLIGGATDPDLASLSEEAIVQQVQQDLNRLLDLPAAKARLLGMKVWRRAIPQYMVGYPEQWQQVTHALSQTPGLFLCSNYAEGVALGDRVEHGNRTAAAVAAYLSGGQP	+ (‘+’ per each 10-fold resistance)	+++ (‘+’ per each 10-fold resistance)	+ (‘+’ per each 10-fold resistance)	+ (‘+’ per each 10-fold resistance)	+++ (‘+’ per each 10-fold resistance)	+ (‘+’ per each 10-fold resistance)	+++ (‘+’ per each 10-fold resistance)
CyPPO19 A167C + F360V: variant of CyPPO19 PPO protein (SEQ ID NO: 1) (protein, Synthetic_PPO of Thermosynechococcus elongatus PKUAC-SCTE542 (comprising GenBank No. CP032152.1)) MSEVDVAIVGGGLSGLSLAWRLQQSAPQYSVVLLEASDRLGGNITTQTAEGFVWELGPNSFAPTPALLQLIAEVGLQSELIRGDRHLPRYIYWRGQLYPLQPTRPLALATSNLLSPWGKVRAALGALGFVPPYLGSGDESVNSFFRRHLGQEVAERLVAPFVSGVYCGDPQQLSAAAAFRRIAQLEKLGGGLIAGALHLRRQQAPKPKPPTSVQMRPGELGSFKEGLAALPRAIAQQLKAPIHLQTPVQEITPDPKGGYLLRSGEQTWRARSVVLATPAYQTAELVAPFQPAIARVLATIPYPTVACVVLAYPAGLGRSVRPGFGVLIPRSQGIRTLGTIWSSCLFPQRTPAGWQVFTSVIGGATDPDLASLSEEAIVQQVQQDLNRLLDLPAAKARLLGMKVWRRAIPQYMVGYPEQWQQVTHALSQTPGLFLCSNYAEGVALGDRVEHGNRTAAAVAAYLSGGQP	+ (‘+’ per each 10-fold resistance)	+++ (‘+’ per each 10-fold resistance)	+ (‘+’ per each 10-fold resistance)	+ (‘+’ per each 10-fold resistance)	+++ (‘+’ per each 10-fold resistance)	+ (‘+’ per each 10-fold resistance)	++++ (‘+’ per each 10-fold resistance)
CyPPO19 V305M + F360I: variant of CyPPO19 PPO protein (SEQ ID NO: 1) (protein, Synthetic_PPO of Thermosynechococcus elongatus PKUAC-SCTE542 (comprising GenBank No. CP032152.1)) MSEVDVAIVGGGLSGLSLAWRLQQSAPQYSVVLLEASDRLGGNITTQTAEGFVWELGPNSFAPTPALLQLIAEVGLQSELIRGDRHLPRYIYWRGQLYPLQPTRPLALATSNLLSPWGKVRAALGALGFVPPYLGSGDESVNSFFRRHLGQEVAERLVAPFVSGVYAGDPQQLSAAAAFRRIAQLEKLGGGLIAGALHLRRQQAPKPKPPTSVQMRPGELGSFKEGLAALPRAIAQQLKAPIHLQTPVQEITPDPKGGYLLRSGEQTWRARSVVLATPAYQTAELVAPFQPAIARVLATIPYPTMACVVLAYPAGLGRSVRPGFGVLIPRSQGIRTLGTIWSSCLFPQRTPAGWQVFTSIIGGATDPDLASLSEEAIVQQVQQDLNRLLDLPAAKARLLGMKVWRRAIPQYMVGYPEQWQQVTHALSQTPGLFLCSNYAEGVALGDRVEHGNRTAAAVAAYLSGGQP	+ (‘+’ per each 10-fold resistance)	++++ (‘+’ per each 10-fold resistance)	+ (‘+’ per each 10-fold resistance)	+ (‘+’ per each 10-fold resistance)	++++ (‘+’ per each 10-fold resistance)	++ (‘+’ per each 10-fold resistance)	++++ (‘+’ per each 10-fold resistance)
